Laboratory results as given in publication PMC2726289.

Molecular target: peptide from Dynamin1 proline-rich domain
Experiment: not stated; monomeric GRAF1 SH3 domain with a peptide from the Dynamin1 proline-rich domain; method in Figure S2D or the supplement, not shown

Kd: 106 µM
B1: Monomeric GRAF1 SH3 domain (domain or fragment)
chain: TPFRKAKALYACKAEHDSELSFTAGTVFDNVHPSQEPGWLEGTLNGKTGLIPENYVEFL
